± gives the standard deviation of the averaged measurements.
What follows are sequences tested on Saccharomyces cerevisiae (assay: protein stability index of tFT-peptide fusion (C-terminal peptide) (PSI (0-1 scale)); higher = more stable (slower turnover)). Conditions: genetic background: wild type; temperature: 30 C.
Protocol: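 Multiplexed protein stability (MPS) profiling in S. cerevisiae. Random 12-aa peptides (tFT-X12 library) are fused to the C-terminus of a sfGFP-mCherry tandem fluorescent timer, after mCherry and a GGGS linker. Cells are FACS-sorted into 8 mCherry/sfGFP bins and deep-sequenced. The protein stability index (PSI) is the read-weighted bin average, scaled from 0 (unstable) to 1 (stable). Only peptides with >10 reads are reported; cells were grown at 30 °C in SC-His with glucose.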
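Also: PSI is a weighted mean of sequencing reads over stability bins, variants kept only with over 10 reads, mCherry proximal and sfGFP distal, peptide attached via GGGS linker.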

Point of comparison: LCAETGVGPGLW, protein stability index 0.724 ± 0.016. Against it:
- REEREISGNLLV — higher, 0.7899 ± 0.0075
- PPPLLPPTPLPP — lower, 0.619 ± 0.0069
- TPHQPPPPRPSP — within error, 0.7057 ± 0.0037
- GGVFTHLEKAVD — lower, 0.649 ± 0.046
- SPPVRLPSASTV — within error, 0.681 ± 0.036
- FRDEGYCFADLV — within error, 0.71 ± 0.094
- DPRPRLNCSYEH — lower, 0.68 ± 0.014
- SVILRMIGQKIK — lower, 0.596 ± 0.038
- PASRNWGLNPDT — lower, 0.677 ± 0.025
- VLSFLSSFFVRV — within error, 0.65 ± 0.079
- GLCSEETPALFY — within error, 0.7173 ± 0.0043
- PGLIPSPRYLLP — lower, 0.656 ± 0.024
- SMAFLNQRPGIL — lower, 0.685 ± 0.017
- STPFALVFLPFP — within error, 0.688 ± 0.034
- LPWLTASRLVMR — within error, 0.714 ± 0.043
- LAYAPLNGDVPY — lower, 0.68 ± 0.01
- PPPPPPPLPLLP — lower, 0.667 ± 0.036
- SMGGDTFILFAV — lower, 0.67 ± 0.023
- CHVRSSILINRT — within error, 0.65 ± 0.1
- FVLARLTYSILI — lower, 0.482 ± 0.047
- AYFLPPLPTTPP — within error, 0.692 ± 0.054
- SRPLLLLPCLLP — lower, 0.643 ± 0.014
- NERTETVHQGTP — within error, 0.691 ± 0.045
- PSFPPLPLSTPP — within error, 0.762 ± 0.063
- GRQLNDSISTLK — lower, 0.642 ± 0.015
- HSFNITSESQKI — lower, 0.653 ± 0.0066
- NLKLIRSEYNLN — lower, 0.658 ± 0.042
- ILTALRNQPFLM — lower, 0.669 ± 0.033
- GAGSRRRNWGGW — within error, 0.711 ± 0.0081
- SGCVGGSDVALS — within error, 0.721 ± 0.018
- PPPLPPPYPPPP — lower, 0.627 ± 0.016
- RARHDGWRHLYE — within error, 0.707 ± 0.055
- RRTGTFSGLAGL — lower, 0.696 ± 0.0071
- RLIDMNFPVKKE — within error, 0.709 ± 0.04
- RDGDVRTLMGWD — within error, 0.732 ± 0.037
- PLPAPAPSPPSP — within error, 0.695 ± 0.018
- VLFCSVSFGGGQ — lower, 0.614 ± 0.091
- RVCKALKNDNLI — within error, 0.73 ± 0.07
- SLLAVITSFPLR — lower, 0.687 ± 0.012
- LFVLSLHLPCFG — lower, 0.498 ± 0.02
- LTLPLFPPPCSV — lower, 0.648 ± 0.018
- PPPDTPSPPSSL — lower, 0.668 ± 0.026
- ESRPRVGLERER — within error, 0.676 ± 0.053
- PPPPSPPPPSTT — within error, 0.751 ± 0.08
- TTPPFVSALPLS — within error, 0.71142 ± 0.00043
- SKDVLPGDDNVI — within error, 0.656 ± 0.073
- LLYALLLSLFRY — lower, 0.595 ± 0.02
- PPLLPPVSPPPP — within error, 0.684 ± 0.061
- QRKYTLCVRPFP — within error, 0.697 ± 0.037
- QKAQLISQVNTG — lower, 0.6682 ± 0.0065
- RKKTQQKTQNIQ — lower, 0.67 ± 0.024
- GACSIVFYKVKR — lower, 0.653 ± 0.048
- YASRVLCVGLVL — within error, 0.636 ± 0.094
- AGSSLVVAWHGV — lower, 0.673 ± 0.028
- MSRRSVFGAVFW — lower, 0.663 ± 0.039
- KKITSIHKKRER — within error, 0.822 ± 0.12
- GIKKKKKKQDKK — within error, 0.728 ± 0.076
- SPEGYLLSPRCT — within error, 0.737 ± 0.049
- GGGWSRRGVGDR — lower, 0.673 ± 0.028
- TYIRRTICGVLS — lower, 0.587 ± 0.021
- AVPSGLPLMFPR — lower, 0.662 ± 0.045
- QVWLLRPAPARV — within error, 0.598 ± 0.12
- LIPAASLSPLAC — lower, 0.562 ± 0.013
- EGRFRNGRAVSG — lower, 0.673 ± 0.011
- GGGLAPADQVGV — within error, 0.729 ± 0.043
- RPPRNLDPSVSI — within error, 0.646 ± 0.13
- PRSPPPPPSYSP — within error, 0.703 ± 0.13
- SDPPPPPDPPSP — lower, 0.673 ± 0.032
- PPPPASARPSLP — lower, 0.477 ± 0.069
- RAYATPIPRSAI — lower, 0.655 ± 0.046
- DRNGAQAEISFV — lower, 0.6 ± 0.041
- GVGGCVMGVGRV — lower, 0.64763 ± 0.00048
- VNGLVLFEYLMV — lower, 0.579 ± 0.029
- LVPSPLIFPSLG — higher, 0.783 ± 0.012
- SLPGAPSPPHPL — within error, 0.744 ± 0.0095
- RPPSPPLPPPLS — lower, 0.6906 ± 0.0013
- PPPFRPPPRLYS — within error, 0.693 ± 0.025
- PLPLPTPPAFLS — within error, 0.707 ± 0.08
- GVTNRQMAWCFS — lower, 0.606 ± 0.071
- RVAPITARLAPH — within error, 0.859 ± 0.12
- GQLGGRGNRRVA — within error, 0.718 ± 0.041
- DVRVFQMLQGDI — within error, 0.709 ± 0.012
- PDTRLGIIITNM — within error, 0.701 ± 0.083
- GEVILERKRRKI — lower, 0.629 ± 0.057
- SPPLPARSQSSI — within error, 0.708 ± 0.029
- LGWDGSRRRPGL — within error, 0.727 ± 0.14
- FVRWCFGRRVLG — lower, 0.619 ± 0.0027
- CLYVGSRPPRSA — within error, 0.71 ± 0.031
- EGDIFSGFPSFQ — within error, 0.741 ± 0.065
- LYRRGTYFEGLI — within error, 0.704 ± 0.012
- RKTHTRTQKRKL — lower, 0.675 ± 0.01
- PGSAVSFLLTFR — lower, 0.646 ± 0.012
- RGGGLGGLRSRA — higher, 0.823 ± 0.081
- LVLLFGIGTTHW — lower, 0.65 ± 0.049
- YDLGHYFSIPRL — within error, 0.747 ± 0.011
- PPYPCRRPPPPP — lower, 0.647 ± 0.033
- NKKGMSIWANER — lower, 0.68915 ± 0.0002
- AARPLGLPSASG — within error, 0.7113 ± 0.0062
- LVEARQGAFLVV — within error, 0.692 ± 0.029
- PALLTICRTSLP — lower, 0.64 ± 0.00076
- GRERMVVVSCGS — lower, 0.629 ± 0.043
- LFPPTPRPLPLP — lower, 0.654 ± 0.023
- LPPPPTAPPPSR — within error, 0.719 ± 0.058
- PWPPRPPPPPSL — within error, 0.694 ± 0.048
- PLPPLPPTRPLP — within error, 0.688 ± 0.026
- GPGGTVDLIWGS — within error, 0.703 ± 0.034
- KVFTQGPGRMLE — within error, 0.758 ± 0.021
- GTETKIRNKHVE — lower, 0.645 ± 0.059
- SDHVYHFRLTRV — within error, 0.709 ± 0.076
- KKNAFIYKRRPR — within error, 0.714 ± 0.04
- WSIVVDDISWSV — within error, 0.698 ± 0.013
- ERKKDGRKVRKK — lower, 0.658 ± 0.012
- KADLKTKNMCRL — higher, 0.765 ± 0.017
- YRHYVKLGPKPF — lower, 0.668 ± 0.024
- RSCFLSLFFFGF — lower, 0.653 ± 0.036
- NRCGGACGRQAG — within error, 0.711 ± 0.027
- VRTLGPLRPEGL — within error, 0.74 ± 0.068
- VYLSSSLFPPSS — higher, 0.804 ± 0.042
- RLRGGVPGRTVG — within error, 0.68 ± 0.078
- GRKCWDRSGWTV — higher, 0.771 ± 0.014
- KKLAPHPLTTRV — within error, 0.642 ± 0.078
- VSSSSPSNFIPL — within error, 0.666 ± 0.093
- SAEKKRAKCERR — lower, 0.68 ± 0.01
- EVVGILSSVNIA — lower, 0.647 ± 0.03
- GFLEAIMRFCGL — within error, 0.719 ± 0.0081
- RIPSDLTLNPRG — within error, 0.669 ± 0.05
- DSNLAVHRWYIS — lower, 0.573 ± 0.018
- GCELVISCAHPV — within error, 0.695 ± 0.063
- SLREEATLVRAR — lower, 0.563 ± 0.019
- TARGIRGICKSI — within error, 0.711 ± 0.021
- VLLGSEGGVQSR — lower, 0.646 ± 0.011
- FSLLPFFRHIFL — lower, 0.637 ± 0.025
- AGLLGVVGGRFG — lower, 0.6993 ± 0.00076
- AVFLGGLLVSRW — within error, 0.682 ± 0.24
- VGHVVVRLWPHE — lower, 0.665 ± 0.013
- HSNGADTFSEGE — lower, 0.648 ± 0.033
- WPWLHSVACLYS — within error, 0.626 ± 0.09
- PPPPPLSPHSPP — within error, 0.699 ± 0.023
- LPPSSLTLSPSS — within error, 0.675 ± 0.045
- VRLPLHHPIPNS — within error, 0.7179 ± 0.0063
- APIQPRAPPRAP — lower, 0.669 ± 0.017
- KVDYIKKKNSRE — within error, 0.7142 ± 0.0036
- GGLICRHGVGRG — within error, 0.705 ± 0.024
- DVTKLVLSIDSC — within error, 0.751 ± 0.052
- SPPPMPLPLIPL — within error, 0.663 ± 0.066
- PPHPPLPPPSPS — within error, 0.704 ± 0.056
- AARFRAVPVFGN — lower, 0.661 ± 0.037
- TPPLPPSLSPTH — within error, 0.708 ± 0.0085
- PPHPPPPAPLPS — within error, 0.73 ± 0.029
- HVLFPLHPNRIP — lower, 0.6609 ± 0.0016
- PVSLPPSLRRPS — within error, 0.736 ± 0.034
- PPPPPPPPLAPP — within error, 0.694 ± 0.022
- TDIRMRRLNRDT — within error, 0.684 ± 0.029
- FSGLSPPRPEFV — within error, 0.708 ± 0.0089
- YQCPASSPVLSA — within error, 0.7191 ± 0.005
- FLLVLVPFCALF — lower, 0.547 ± 0.11
- QPGPPPRPHVQP — within error, 0.676 ± 0.048
- IRNDERHSKNQD — within error, 0.74 ± 0.062
- LPPLTSPSIVRG — within error, 0.749 ± 0.04
- RVSTIEAEINLR — within error, 0.708 ± 0.012
- GHRAEGMWSGGL — within error, 0.751 ± 0.098
- GGRVLKFLLGRL — within error, 0.668 ± 0.15
- RLRPRHPRLLRS — within error, 0.735 ± 0.034
- PPLTPPTPVPPG — lower, 0.6937 ± 0.0056
- RVRGEHKLIGRA — lower, 0.652 ± 0.034
- KQHWIDDRNRIE — within error, 0.716 ± 0.065
- PSTRPQYLFLPP — lower, 0.635 ± 0.016
- EAFARGAPNQTS — within error, 0.804 ± 0.066
- ELLRTGRVLDRE — within error, 0.71 ± 0.0076
- PLNHIVHPHRAP — lower, 0.687 ± 0.0052
- PKKKKKKTKAEK — within error, 0.712 ± 0.035
- ADRVHLNGLEML — within error, 0.747 ± 0.0093
- PVPMVPTYPPSP — within error, 0.736 ± 0.044
- RRTYERRVATSR — within error, 0.691 ± 0.031
- PGKRPTERLAPS — within error, 0.749 ± 0.026
- TVQPGAVRFILF — within error, 0.703 ± 0.028
- FPPLPPPPPPLN — within error, 0.743 ± 0.065
- TTKTGQVEIYKV — lower, 0.661 ± 0.033
- GRGGGRGVGVVG — lower, 0.6345 ± 0.0028
- VYLTGRCRRCLR — within error, 0.702 ± 0.05
- VVATRYGGCFRR — within error, 0.669 ± 0.04
- GEGAWNRKKPGD — lower, 0.632 ± 0.067
- PAPPVFVPSLPL — higher, 0.801 ± 0.029
- PPSLLPSPPRLF — within error, 0.667 ± 0.057
- RFFPPPARPSPF — within error, 0.732 ± 0.025
- LYSRSSRLFRPL — higher, 0.804 ± 0.042
- PWTSSTTSRFPS — within error, 0.727 ± 0.033
- YHDVRSLGPSRT — lower, 0.666 ± 0.04
- SVLVCSAIVIRK — lower, 0.5998 ± 0.00079
- FALERLWFMSVG — lower, 0.67 ± 0.031
- VSIPRTLFITRF — lower, 0.67018 ± 0.00016
- TPPPNTPSPLTI — lower, 0.654 ± 0.033
- RKQNVASESERK — within error, 0.752 ± 0.094
- PVLGRFGSTFVV — within error, 0.674 ± 0.059
- GPYPPFSPPPLS — within error, 0.697 ± 0.072

— the supplement of paper PMC10724198
